Assay [1] addresses Trx-cpFtsY (UniProt O80842). Nature of the assay: pull-down.
For assay [2], the target named is cpSRP54-his (A. thaliana) (UniProt P37107). Nature of the assay: co-IP.

The source of these data is publication PMC2173952.

Where only a bound is given, the exact number is not on record here.

Chain of UniProt O80842 (O80842 41-366): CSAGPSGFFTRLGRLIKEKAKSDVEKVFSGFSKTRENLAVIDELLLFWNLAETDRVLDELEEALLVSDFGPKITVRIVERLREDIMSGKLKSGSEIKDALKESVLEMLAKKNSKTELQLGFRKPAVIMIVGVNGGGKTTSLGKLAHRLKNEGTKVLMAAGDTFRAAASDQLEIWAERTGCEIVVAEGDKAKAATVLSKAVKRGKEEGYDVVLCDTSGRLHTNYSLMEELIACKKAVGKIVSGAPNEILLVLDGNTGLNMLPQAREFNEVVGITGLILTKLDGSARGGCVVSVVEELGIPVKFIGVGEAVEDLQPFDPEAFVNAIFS
Chain of UniProt P37107 (P37107 76-564): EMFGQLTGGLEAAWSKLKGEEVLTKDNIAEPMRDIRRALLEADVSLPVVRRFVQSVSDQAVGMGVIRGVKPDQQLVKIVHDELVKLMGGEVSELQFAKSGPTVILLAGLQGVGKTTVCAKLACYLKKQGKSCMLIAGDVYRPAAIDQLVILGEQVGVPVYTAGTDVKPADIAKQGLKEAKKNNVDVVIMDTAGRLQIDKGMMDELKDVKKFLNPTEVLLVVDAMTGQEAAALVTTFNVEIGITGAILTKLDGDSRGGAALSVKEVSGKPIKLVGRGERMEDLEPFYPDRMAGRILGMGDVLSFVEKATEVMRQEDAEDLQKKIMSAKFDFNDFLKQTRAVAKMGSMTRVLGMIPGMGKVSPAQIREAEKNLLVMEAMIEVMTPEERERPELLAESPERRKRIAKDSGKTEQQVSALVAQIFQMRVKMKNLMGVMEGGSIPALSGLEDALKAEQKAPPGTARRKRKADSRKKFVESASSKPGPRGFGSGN

Consider “ALB3 (from UniProt Q8LBP4 57-462) (natural protein)”, for which, in assay [1], the fold change of coprecipitated ALB3 with cpSRP added against cpFtsY alone was > 6 fold. Also, the fold change of the coprecipitate with cpFtsY added against cpSRP alone in assay [2] was > 2 fold.
